# Reference: patent US7314754B2, “Polynucleotide encoding the hOT7T175 G protein coupled receptor” (Takeda Pharmaceutical Company Limited, priority 1998, dated 2008)
# No end group written: not given here.
# Biological target: T1, rOT7T175 (Rattus norvegicus, UniProt Q924U1)
# T1 construct: expressed in transfected cells
# Assay: Measurement of intracellular Ca ion concentration-increasing activity using FLIPR
# Format: cell-based
# Details: rOT7T175-23 cells; final peptide concentration 1×10^−5 M to 1×10^−10 M
# Experimental: The stable expression cell line rOT7T175 was obtained by transduction of expression plasmid pAK-rOT175 for animal cell into CHO/dhfr^− cells, using CellPhect Transfection Kit (Amersham Pharmacia Biotech, Inc.). First, […] of Buffer A (attached to CellPhect Transfection Kit) was added to […] of plasmid DNA dissolved in […] of distilled water followed by stirring. After the mixture was settled for 10 minutes, […] of Buffer B (attached to CellPhect Transfection Kit) was added to the mixture, which was vigorously stirred to form liposomes containing the DNA. Then 4×10^5 CHO/dhfr^− cells (obtained from ATCC) were inoculated on a 60 mm Petri dish. After culturing the cells in Ham's F-12 medium (Nissui Seiyaku Co., Ltd.) supplemented with 10% fetal bovine serum (BIO WHITTAKER, Inc.) at 37° C. for 2 days in 5% carbon dioxide gas, […] of the liposomes were dropwise added to the cells in the Petri dish. After culturing the cells at 37° C. for 6 hours in 5% carbon dioxide gas, the cells were washed twice with serum-free Ham's F-12 medium and 3 ml of 15% glycerol was added to the cells in the Petri dish followed by treatment for 2 minutes. […]
# The intracellular Ca ion concentration-increasing activity of the synthetic peptides obtained in (1-1) described above in rOT7T175-23 and ETA24was determined, using FLIPR (Molecular Devices, Inc.). […]
# T1 sequence (Q924U1 whole entry R383V): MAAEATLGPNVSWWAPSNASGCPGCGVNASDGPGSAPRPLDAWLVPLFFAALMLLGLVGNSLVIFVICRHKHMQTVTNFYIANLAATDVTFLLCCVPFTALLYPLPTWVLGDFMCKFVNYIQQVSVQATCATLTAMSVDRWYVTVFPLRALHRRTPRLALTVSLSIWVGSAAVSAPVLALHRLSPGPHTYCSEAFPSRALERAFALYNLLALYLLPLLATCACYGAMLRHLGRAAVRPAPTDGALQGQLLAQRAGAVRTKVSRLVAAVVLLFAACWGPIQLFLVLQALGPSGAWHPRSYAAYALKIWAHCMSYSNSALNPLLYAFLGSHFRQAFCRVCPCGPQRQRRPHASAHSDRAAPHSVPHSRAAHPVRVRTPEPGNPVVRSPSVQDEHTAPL
substance,measurement,value
"PEPTIDE (40-54): C-terminal peptide of PEPTIDE (1-54), residues 40-54, synthesized on p-methyl BHA resin (KDLPNYNWNSFGLRF-NH2)","intracellular Ca ion concentration-increasing activity, comparison of dose response curves (FIG. 9)",highest activity
